# Reference: the supplement of paper PMC7877785
# ± gives the uncertainty stated by the source.
# Assay: self-splicing fitness, log relative to wild type (ln ratio); higher = more splicing; Tetrahymena group I intron in knt gene, E. coli kanamycin selection, DiMSum; sequences stand for … in CUCUCU…GGAGGGAAAAGUUAUCAGGCAUGCACCUGGUAGCUAGUCUUUAAACCAAUAGAUUGCAUCGGUUUAAAAGGCAAGACCGUCAAAUUGCGGGAAAGGGGUCAACAGCCGUUCAGUACCAAGUCUCAGGGGAAACUUUGAGAUGGCCUUGCAAAGGGUAUGGUAAUAAGCUGACGGACAUGGUCCUAACCACGCAGCCAAGUCCUAAGUCAACAGAUCUUCUGUUGAUAUGGAUGCAGUUCACAGACUAAAUGUCGGUCGGGGAAGAUGUAUUCUUCUCAUAAGAUAUAGUCGGACCUCUCCUUAAUGGGAGCUAGCGGAUGAAGUGAUGCAACACUGGAGCCGCUGGGAACUAAUUUGUAUGCGAAAGUAUAUUGAUUAGUUUUGGAGUACUCGUGGUCG
# How it was run: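 Library with all eight P1ex-region intron nucleotides randomised, intron inside the knt kanamycin-resistance gene on pET-22b(+), in E. coli BL21(DE3). Cells grew overnight at 37°C or 30°C on LB agar with or without 25 μg/mL kanamycin (plus 100 μg/mL carbenicillin, 50 μM IPTG, 0.2% rhamnose), in six replicate transformations. Pooled colonies were amplicon-sequenced on Illumina HiSeq 2500. DiMSum fitness is the error-weighted combination of wild-type-normalised replicate fold changes, kanamycin versus none.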
Sequence,self-splicing fitness (ln) (30 °C),self-splicing fitness (ln) (37 °C)
UAAGAGCAAUAUUACGGGUU,-3.51 ± 0.29,-2.06 ± 0.31
UAAGAGCAAUAUUACGGUGC,-3.43 ± 0.28,
UAAGAGCAAUAUUACGUAGA,-3.89 ± 0.23,-1.34 ± 0.28
UAAGAGCAAUAUUACGUAGC,-4.28 ± 0.31,-2.71 ± 0.28
UAAGAGCAAUAUUACGUAUA,-2.64 ± 0.26,-1.97 ± 0.25
UAAGAGCAAUAUUACGUCCC,-3.99 ± 0.42,
UAAGAGCAAUAUUACGUGCA,-2.09 ± 0.2,-0.84 ± 0.2
UAAUAGCAAUAUUACGAAGU,,-1.55 ± 0.47
UAAUAGCAAUAUUACGAGGA,-3.68 ± 0.25,-2.62 ± 0.16
UAAUAGCAAUAUUACGAGUA,-2.31 ± 0.14,-0.79 ± 0.11
UAAUAGCAAUAUUACGAGUU,-2.79 ± 0.23,-2.31 ± 0.27
UAAUAGCAAUAUUACGAUAC,-3.78 ± 0.43,
UAAUAGCAAUAUUACGCACU,-1.16 ± 0.11,-1.02 ± 0.12
UAAUAGCAAUAUUACGCCAG,-1.07 ± 0.2,-1.2 ± 0.32
UAAUAGCAAUAUUACGCGAU,-3.2 ± 0.28,-1.86 ± 0.24
UAAUAGCAAUAUUACGGAAC,-3.01 ± 0.2,-0.714 ± 0.16
UAAUAGCAAUAUUACGGCCU,-1.16 ± 0.14,-0.77 ± 0.19
UAAUAGCAAUAUUACGGUCU,-2.75 ± 0.16,-2.49 ± 0.16
UAAUAGCAAUAUUACGUAAU,-3.25 ± 0.29,-2.52 ± 0.34
UAAUAGCAAUAUUACGUAGA,-3.52 ± 0.18,-1.98 ± 0.17
UAAUAGCAAUAUUACGUAGU,-3.82 ± 0.19,-2.44 ± 0.23
UAAUAGCAAUAUUACGUCGA,-2.4 ± 0.17,-0.993 ± 0.16
UAAUAGCAAUAUUACGUCUC,-3.41 ± 0.26,
UAAUAGCAAUAUUACGUCUG,-0.694 ± 0.075,-0.276 ± 0.089
UACAAGCAAUAUUACGAAAA,-1.94 ± 0.19,-1.22 ± 0.15

Sequence,self-splicing fitness (ln) (30 °C),self-splicing fitness (ln) (37 °C)
UACAAGCAAUAUUACGAAGA,-2.08 ± 0.27,-2.11 ± 0.21
UACAAGCAAUAUUACGACGU,-0.941 ± 0.07,-0.409 ± 0.081
UACAAGCAAUAUUACGAGGC,-2.4 ± 0.3,-1.84 ± 0.28
UACAAGCAAUAUUACGAGUA,-2.13 ± 0.08,-0.707 ± 0.078
UACAAGCAAUAUUACGAGUC,-3.06 ± 0.11,-1.93 ± 0.15
UACAAGCAAUAUUACGAUGU,-3.72 ± 0.17,-1.96 ± 0.14
UACAAGCAAUAUUACGCCUA,0.14 ± 0.067,-0.0341 ± 0.071
UACAAGCAAUAUUACGCGGG,-2.43 ± 0.086,-1.25 ± 0.099
UACAAGCAAUAUUACGCGUA,-2.92 ± 0.24,-2.76 ± 0.33
UACAAGCAAUAUUACGCUAG,-2.16 ± 0.11,-1.13 ± 0.11
UACAAGCAAUAUUACGGAAG,-4.3 ± 0.46,-2.46 ± 0.34
UACAAGCAAUAUUACGGAUC,-2.59 ± 0.21,0.047 ± 0.15
UACAAGCAAUAUUACGGGCG,-0.448 ± 0.1,-0.308 ± 0.11
UACAAGCAAUAUUACGGUAU,-3.83 ± 0.21,-2.54 ± 0.16
UACAAGCAAUAUUACGGUCA,0.157 ± 0.062,0.514 ± 0.072
UACAAGCAAUAUUACGUAGG,-4 ± 0.26,-2.78 ± 0.27
UACAAGCAAUAUUACGUAGU,-3.88 ± 0.17,-2.18 ± 0.15
UACAAGCAAUAUUACGUAUC,-3.94 ± 0.24,-2.69 ± 0.21
UACAAGCAAUAUUACGUGAA,-2.42 ± 0.078,-1.7 ± 0.1
UACAAGCAAUAUUACGUGCC,-2.49 ± 0.15,-1.53 ± 0.14
UACAAGCAAUAUUACGUUGG,-3.19 ± 0.12,-1.41 ± 0.1
UACCAGCAAUAUUACGAACA,-0.482 ± 0.096,-0.258 ± 0.12
UACCAGCAAUAUUACGAACG,-0.468 ± 0.063,-0.562 ± 0.07
UACCAGCAAUAUUACGAACU,-2.26 ± 0.1,-0.819 ± 0.11
UACCAGCAAUAUUACGAAUA,-0.776 ± 0.086,0.199 ± 0.093

Sequence,self-splicing fitness (ln) (30 °C),self-splicing fitness (ln) (37 °C)
UACCAGCAAUAUUACGACCA,-0.314 ± 0.081,0.106 ± 0.1
UACCAGCAAUAUUACGACCG,-0.151 ± 0.067,0.099 ± 0.095
UACCAGCAAUAUUACGACCU,-2.1 ± 0.17,-1.57 ± 0.17
UACCAGCAAUAUUACGACGU,-2.11 ± 0.082,-0.692 ± 0.089
UACCAGCAAUAUUACGAGCC,-4.51 ± 0.33,-2.07 ± 0.32
UACCAGCAAUAUUACGAGCU,-3.29 ± 0.21,-2.7 ± 0.24
UACCAGCAAUAUUACGCAAC,-2.85 ± 0.3,-2.19 ± 0.27
UACCAGCAAUAUUACGCAGG,-3.68 ± 0.21,-2.37 ± 0.27
UACCAGCAAUAUUACGCCCC,-2.68 ± 0.5,-0.87 ± 0.4
UACCAGCAAUAUUACGCCGC,-2.89 ± 0.38,-2.37 ± 0.35
UACCAGCAAUAUUACGCCUA,0.00559 ± 0.047,0.659 ± 0.065
UACCAGCAAUAUUACGCGCA,0.0526 ± 0.065,-0.42 ± 0.08
UACCAGCAAUAUUACGCGUU,-1.64 ± 0.07,-0.917 ± 0.086
UACCAGCAAUAUUACGGAUA,-1.12 ± 0.077,-0.394 ± 0.078
UACCAGCAAUAUUACGGAUU,-0.984 ± 0.071,-0.93 ± 0.077
UACCAGCAAUAUUACGGCGG,-1.07 ± 0.058,-0.549 ± 0.081
UACCAGCAAUAUUACGGCUA,0.185 ± 0.066,0.554 ± 0.089
UACCAGCAAUAUUACGGUUA,-0.306 ± 0.063,0.23 ± 0.076
UACCAGCAAUAUUACGUGCG,-0.811 ± 0.044,-0.367 ± 0.061
UACCAGCAAUAUUACGUUAU,-2.97 ± 0.12,-2.26 ± 0.14
UACGAGCAAUAUUACGAGAG,-3.93 ± 0.28,-2.8 ± 0.22
UACGAGCAAUAUUACGAUAC,-3.5 ± 0.19,-1.61 ± 0.13
UACGAGCAAUAUUACGCCCU,-3.96 ± 0.47,
UACGAGCAAUAUUACGCCUG,-1.65 ± 0.1,-0.887 ± 0.14
UACGAGCAAUAUUACGCUUA,-1.96 ± 0.25,-0.594 ± 0.22

Sequence,self-splicing fitness (ln) (30 °C),self-splicing fitness (ln) (37 °C)
UACGAGCAAUAUUACGGAAA,,-1.29 ± 0.32
UACGAGCAAUAUUACGGAUC,-3.56 ± 0.4,-2.63 ± 0.37
UACGAGCAAUAUUACGGCUU,-3.48 ± 0.21,-1.84 ± 0.16
UACGAGCAAUAUUACGGGCG,-0.999 ± 0.12,-0.902 ± 0.14
UACGAGCAAUAUUACGGGUG,-1.88 ± 0.074,-0.725 ± 0.087
UACGAGCAAUAUUACGGUGC,-3.46 ± 0.4,-2.43 ± 0.48
UACGAGCAAUAUUACGGUUU,-3.06 ± 0.17,-2.32 ± 0.18
UACGAGCAAUAUUACGUCAG,-3.08 ± 0.34,-3.01 ± 0.36
UACGAGCAAUAUUACGUCGA,-2.65 ± 0.42,-1.45 ± 0.25
UACGAGCAAUAUUACGUGAA,-3.05 ± 0.2,
UACGAGCAAUAUUACGUGGA,-3.55 ± 0.23,-1.98 ± 0.19
UACUAGCAAUAUUACGAAGC,-2.06 ± 0.38,-3.04 ± 0.43
UACUAGCAAUAUUACGACGC,-2.01 ± 0.25,0.0923 ± 0.18
UACUAGCAAUAUUACGACGG,-0.517 ± 0.12,-0.301 ± 0.15
UACUAGCAAUAUUACGACGU,-2.22 ± 0.1,-1.29 ± 0.12
UACUAGCAAUAUUACGCACG,-0.877 ± 0.089,-0.992 ± 0.11
UACUAGCAAUAUUACGCCUA,-0.895 ± 0.14,0.591 ± 0.13
UACUAGCAAUAUUACGCUCC,-2.42 ± 0.23,-1.21 ± 0.23
UACUAGCAAUAUUACGGAAA,-2.64 ± 0.22,-1.27 ± 0.18
UACUAGCAAUAUUACGGAGA,-2.59 ± 0.17,-1.84 ± 0.16
UACUAGCAAUAUUACGGAUA,-1.72 ± 0.096,-0.886 ± 0.092
UACUAGCAAUAUUACGGCUG,-0.825 ± 0.14,-0.545 ± 0.19
